The results in this text go back to publication doi:10.1101/2022.05.07.491039 (bioRxiv, 2022).

Residue numbers refer to the chain shown, from its start.

Sequences and labels used below:
T1: full-length murine αE-catenin (mouse, UniProt P26231 1-906)
T1 sequence: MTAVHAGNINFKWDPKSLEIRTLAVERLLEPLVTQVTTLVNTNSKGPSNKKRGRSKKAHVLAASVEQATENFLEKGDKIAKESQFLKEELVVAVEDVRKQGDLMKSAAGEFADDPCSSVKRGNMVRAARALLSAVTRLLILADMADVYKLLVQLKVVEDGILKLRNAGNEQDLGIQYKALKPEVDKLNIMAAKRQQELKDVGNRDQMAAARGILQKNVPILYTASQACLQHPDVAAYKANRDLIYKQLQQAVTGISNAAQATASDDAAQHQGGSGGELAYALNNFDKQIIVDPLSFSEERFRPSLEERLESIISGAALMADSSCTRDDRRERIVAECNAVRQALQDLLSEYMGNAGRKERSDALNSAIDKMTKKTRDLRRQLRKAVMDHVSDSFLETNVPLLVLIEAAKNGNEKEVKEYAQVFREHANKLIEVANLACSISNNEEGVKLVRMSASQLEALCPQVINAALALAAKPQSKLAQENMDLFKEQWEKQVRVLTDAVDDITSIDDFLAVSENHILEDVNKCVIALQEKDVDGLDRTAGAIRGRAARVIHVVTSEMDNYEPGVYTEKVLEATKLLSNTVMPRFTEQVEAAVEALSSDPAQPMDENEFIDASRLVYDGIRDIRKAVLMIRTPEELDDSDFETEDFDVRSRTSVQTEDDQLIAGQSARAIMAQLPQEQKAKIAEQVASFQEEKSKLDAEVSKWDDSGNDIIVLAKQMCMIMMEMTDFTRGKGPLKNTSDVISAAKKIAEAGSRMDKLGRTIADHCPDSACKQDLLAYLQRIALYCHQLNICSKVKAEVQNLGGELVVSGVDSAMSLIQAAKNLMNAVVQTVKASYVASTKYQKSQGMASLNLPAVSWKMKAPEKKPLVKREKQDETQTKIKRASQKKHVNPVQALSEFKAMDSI

T2: αE-catenin R551A (mouse, UniProt P26231 1-906, R551A)
T2 sequence: T1 sequence with R551A

B1: Mouse E-cadherin cytoplasmic domain (domain or fragment)
chain: not shown
B2: β-catenin (natural protein)
chain: MATQADLMELDMAMEPDRKAAVSHWQQQSYLDSGIHSGATTTAPSLSGKGNPEEEDVDTSQVLYEWEQGFSQSFTQEQVADIDGQYAMTRAQRVRAAMFPETLDEGMQIPSTQFDAAHPTNVQRLAEPSQMLKHAVVNLINYQDDAELATRAIPELTKLLNDEDQVVVNKAAVMVHQLSKKEASRHAIMRSPQMVSAIVRTMQNTNDVETARCTAGTLHNLSHHREGLLAIFKSGGIPALVKMLGSPVDSVLFYAITTLHNLLLHQEGAKMAVRLAGGLQKMVALLNKTNVKFLAITTDCLQILAYGNQESKLIILASGGPQALVNIMRTYTYEKLLWTTSRVLKVLSVCSSNKPAIVEAGGMQALGLHLTDPSQRLVQNCLWTLRNLSDAATKQEGMEGLLGTLVQLLGSDDINVVTCAAGILSNLTCNNYKNKMMVCQVGGIEALVRTVLRAGDREDITEPAICALRHLTSRHQEAEMAQNAVRLHYGLPVVVKLLHPPSHWPLIKATVGLIRNLALCPANHAPLREQGAIPRLVQLLVRAHQDTQRRTSMGGTQQQFVEGVRMEEIVEGCTGALHILARDVHNRIVIRGLNTIPLFVQLLYSPIENIQRVAAGVLCELAQDKEAAEAIEAEGATAPLTELLHSRNEGVATYAAAVLFRMSEDKPQDYKKRLSVELTSSLFRTEPMAWNETADLGLDIGAQGEALGYRQDDPSYRSFHSGGYGQDALGMDPMMEHEMGGHHPGADYPVDGLPDLGHAQDLMDGLPPGDSNQLAWFDTDL
B3: β-catenin 78-671 (domain or fragment)
chain: QVADIDGQYAMTRAQRVRAAMFPETLDEGMQIPSTQFDAAHPTNVQRLAEPSQMLKHAVVNLINYQDDAELATRAIPELTKLLNDEDQVVVNKAAVMVHQLSKKEASRHAIMRSPQMVSAIVRTMQNTNDVETARCTAGTLHNLSHHREGLLAIFKSGGIPALVKMLGSPVDSVLFYAITTLHNLLLHQEGAKMAVRLAGGLQKMVALLNKTNVKFLAITTDCLQILAYGNQESKLIILASGGPQALVNIMRTYTYEKLLWTTSRVLKVLSVCSSNKPAIVEAGGMQALGLHLTDPSQRLVQNCLWTLRNLSDAATKQEGMEGLLGTLVQLLGSDDINVVTCAAGILSNLTCNNYKNKMMVCQVGGIEALVRTVLRAGDREDITEPAICALRHLTSRHQEAEMAQNAVRLHYGLPVVVKLLHPPSHWPLIKATVGLIRNLALCPANHAPLREQGAIPRLVQLLVRAHQDTQRRTSMGGTQQQFVEGVRMEEIVEGCTGALHILARDVHNRIVIRGLNTIPLFVQLLYSPIENIQRVAAGVLCELAQDKEAAEAIEAEGATAPLTELLHSRNEGVATYAAAVLFRMSEDKPQDYK
B4: chicken vinculin D1 domain (aa 1-259) (domain or fragment)
chain: MPVFHTRTIESILEPVAQQISHLVIMHEEGEVDGKAIPDLTAPVSAVQAAVSNLVRVGKETVQTTEDQILKRDMPPAFIKVENACTKLVRAAQMLQADPYSVPARDYLIDGSRGILSGTSDLLLTFDEAEVRKIIRVCKGILEYLTVAEVVETMEDLVTYTKNLGPGMTKMAKMIDERQQELTHQEHRVMLVNSMNTVKELLPVLISAMKIFVTTKNTKSQGIEEALKNRNFTVEKMSAEINEIIRVLQLTSWDEDAWA

Assay in all cases: SEC
(Size exclusion chromatography separates by hydrodynamic size, large species first.)

The assay “β-catenin” has as its target B2.
Assay [1] has as its target T1, full-length murine αE-catenin.
A further assay concerns the target T2, αE-catenin R551A.

As for B1, the binding result with β-catenin was “binds”.

For B2, the binding result (in assay [1]; with αE-catenin R551A) was “binds” in each case.

As for B3, the binding result in assay [1] is “binds”.

For B4, the binding result with αE-catenin R551A is listed as “binds”.
